The text below walks through data of patent publication US20040096901A1.

Values joined by “and” are separate entries in the source; they are usually repeats but may differ in a detail not shown here. Equal values may be shown once.

The target of this test is CD45 antigen (leukocyte common antigen), human, on cells (human) (UniProt P08575). Briefly: cell-based or functional assay.

B1: chimeric anti-CD45RO/RB mAb "candidate mAb" (antibody, human IgG1, kappa, V domains shown)
VH: EVQLQQSGPELVKPGASVKMSCKASGYTFTNYIIHWVKQEPGQGLEWIGYFNPYNHGTKYNEKFKGRATLTADKSSNTAYMDLSSLTSEDSAIYYCARSGPYAWFDTWGQGTTVTVSS
VL: DILLTQSPAILSVSPGERVSFSCRASQNIGTSIQWYQQRTNGSPRLLIRSSSESISGIPSRFSGSGSGTDFTLSINSVESEDIADYYCQQSNTWPFTFGSGTKLEIKR
B1 yielded a % of Inhibition of primary MLR (responder #211 CD4, stimulator #219 CD3), 10 ug/ml mAb of 63.5%; a % of Inhibition of primary MLR (responder #220 CD4, stimulator #219 CD3 depl.), 10 ug/ml mAb of 63.1%; a % of Inhibition of primary MLR (responder #227 CD4, stimulator #220 CD3 depl.), 10 ug/ml mAb of 66%; a % of Inhibition of primary MLR (responder #229 CD4, stimulator #219 CD3 depl.), 10 ug/ml mAb of 50.8%. Moreover, the IC50 for the inhibition of primary MLR (cellular activity IC50) was 0.87 nM and 0.13 µg/ml.
